Laboratory results reported in patent US20250257126A1 (CAMBRIDGE ENTERPRISE, published 2025).

Tests used:
murine LGR6 transgene = target: T1, murine LGR6 transgene (mouse, UniProt Q3UVD5 23-967); assay: indirect immunofluorescence on HEK293T cells expressing human and murine LGR family transgenes (FIG. 14B)
T1 construct: whole, on cells; also called mLGR6
T1 sequence (looked up): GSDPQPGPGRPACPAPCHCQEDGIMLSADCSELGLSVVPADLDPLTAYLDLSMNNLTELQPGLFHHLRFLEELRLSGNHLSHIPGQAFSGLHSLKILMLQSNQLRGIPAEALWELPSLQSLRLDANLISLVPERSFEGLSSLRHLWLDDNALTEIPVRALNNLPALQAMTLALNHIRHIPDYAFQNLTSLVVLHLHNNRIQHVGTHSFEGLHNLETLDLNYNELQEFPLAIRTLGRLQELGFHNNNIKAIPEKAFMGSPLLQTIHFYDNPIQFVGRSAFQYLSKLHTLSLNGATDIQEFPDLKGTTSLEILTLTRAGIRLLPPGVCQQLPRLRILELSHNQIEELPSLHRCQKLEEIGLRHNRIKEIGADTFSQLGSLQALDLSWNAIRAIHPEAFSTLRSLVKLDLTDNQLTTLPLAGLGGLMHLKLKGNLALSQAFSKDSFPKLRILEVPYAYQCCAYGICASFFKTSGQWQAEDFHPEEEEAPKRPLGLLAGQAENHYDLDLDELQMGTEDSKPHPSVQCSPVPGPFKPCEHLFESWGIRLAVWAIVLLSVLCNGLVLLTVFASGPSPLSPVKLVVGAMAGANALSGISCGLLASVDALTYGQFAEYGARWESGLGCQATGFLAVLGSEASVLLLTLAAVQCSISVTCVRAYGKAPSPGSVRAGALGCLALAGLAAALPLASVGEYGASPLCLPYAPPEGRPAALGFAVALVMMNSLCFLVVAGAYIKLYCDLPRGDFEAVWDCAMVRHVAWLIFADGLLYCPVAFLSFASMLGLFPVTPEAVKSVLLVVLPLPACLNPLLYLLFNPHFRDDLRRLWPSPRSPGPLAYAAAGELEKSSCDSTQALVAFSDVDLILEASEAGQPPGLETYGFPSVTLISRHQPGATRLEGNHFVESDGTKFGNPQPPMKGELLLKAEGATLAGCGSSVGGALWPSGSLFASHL

human LGR6 transgene = target: T2, human LGR6 transgene (human, UniProt Q9HBX8 25-967); assay: as above
T2 construct: whole, on cells; Overexpressed in HEK293T cells with N-terminal HA tag, V2 receptor tail and eGFP; also tested as lysate; also called hLGR6; LGR6-eGFP
T2 sequence (looked up): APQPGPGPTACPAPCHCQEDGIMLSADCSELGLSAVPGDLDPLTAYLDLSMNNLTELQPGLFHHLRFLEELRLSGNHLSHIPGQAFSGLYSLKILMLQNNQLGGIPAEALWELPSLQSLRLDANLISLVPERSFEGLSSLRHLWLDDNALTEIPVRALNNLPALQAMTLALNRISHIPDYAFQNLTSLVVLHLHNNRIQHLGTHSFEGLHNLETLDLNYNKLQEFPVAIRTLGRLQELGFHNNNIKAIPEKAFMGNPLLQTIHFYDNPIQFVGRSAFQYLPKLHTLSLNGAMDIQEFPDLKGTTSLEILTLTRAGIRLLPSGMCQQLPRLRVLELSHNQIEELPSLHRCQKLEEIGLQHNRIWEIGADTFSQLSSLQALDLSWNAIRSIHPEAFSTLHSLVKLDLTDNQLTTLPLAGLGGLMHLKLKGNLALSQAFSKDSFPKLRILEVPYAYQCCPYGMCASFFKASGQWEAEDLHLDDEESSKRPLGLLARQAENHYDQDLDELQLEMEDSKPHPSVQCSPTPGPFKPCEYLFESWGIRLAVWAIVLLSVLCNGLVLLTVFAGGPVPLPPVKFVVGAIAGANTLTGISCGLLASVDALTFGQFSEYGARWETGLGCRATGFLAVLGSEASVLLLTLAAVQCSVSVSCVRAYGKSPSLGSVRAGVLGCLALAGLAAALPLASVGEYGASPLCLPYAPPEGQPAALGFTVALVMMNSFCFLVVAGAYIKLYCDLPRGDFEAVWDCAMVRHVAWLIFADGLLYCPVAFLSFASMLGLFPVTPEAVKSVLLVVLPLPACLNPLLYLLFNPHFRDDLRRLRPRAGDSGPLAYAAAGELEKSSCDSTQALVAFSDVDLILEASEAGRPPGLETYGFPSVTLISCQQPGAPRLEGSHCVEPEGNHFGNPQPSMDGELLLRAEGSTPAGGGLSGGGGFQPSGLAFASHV

binding result (murine LGR6 transgene): no binding
binding result (human LGR6 transgene): no binding
B1: α-LGR5 variant 4 (antibody, human IgG1, kappa, V domains shown)
VH: QVQLVQSGAEVKKPGASVKVSCKASGYTFTNYWMQWVRQAPGQGLEWIGEIDPSDSYTNYNQKFQGRVTLTVDTSTSTAYMELSSLRSEDTAVYYCARSLSGYVDYWGQGTTVTVSS
VL: EIVMTQSPATLSLSPGERATLSCRASQDISNRLNWYQQKPGQAVRLLISYRSRRHTGIPARFSGSGSGTDYTLTISSLEPEDFAVYYCQQGNSLPPTFGGGTKLEIKR
notes: Humanized antibody; also called α-LGR5v4; clone 2.4
